In patent publication US12551596B2, “Delivery systems for administration of cationic biological actives” (Allvivo Vascular, Inc., priority 2017, dated 2026):

Assay: Stability of ASP-1 in PU 077 catheter coating after EO sterilization and storage, HPLC
Type: physicochemical
Conditions: coated on catheters, EO sterilized, stored at room temperature up to 9 months
Method: Composition (lot K-132, Table 9.1) comprising ASP-1 peptide (SEQ ID NO: 17 in Table A), custom synthesized hydrophilic medical grade polyurethane (PU 077), polyoxyl 15 hydroxystearate (PEG-15-HS) and citric acid monohydrate (CAxH2O) was prepared by dissolving components in MEK/ethanol solvent and dip coated on 7 Fr triple lumen catheters.
The obtained ASP-1 coated catheters were sterilized by ethylene oxide (EO) gas, vacuum dried and pouched in aluminum foil bags supplied with a desiccant pouch. Peptide purity and recovery from coatings before EO sterilization and after EO sterilization and storage was measured by HPLC after full extraction from catheters.

RRWVRRVRRWVRRVVRVVRRWVRR (Antimicrobial peptide) [ASP-1]
stability of ASP-1 peptide in catheter coating: good stability
